Target: T1, full length human DLL4 (human, UniProt Q9NR61 27-685)
T1 construct: whole, on cells; also called native DLL4 expressed in HEK293 cells
Assay: FACS competition vs Notch1/Fc, HEK293 cells with human DLL4
Procedure: Further experiments were performed on selected antibodies using HEK293 cells that were stably transfected with either human, mouse or cynomolgus monkey DLL4 using retroviral constructs. In these experiments, anti-DLL4 antibodies (final concentration: 10-0.01 μg/ml) diluted in PBS containing 2% FCS were added to DLL4-expressing HEK 293 cells (50000 cells/well diluted in PBS containing 2% FCS) and incubated for 1 h at 4° C. Subsequently, Alexa-647 labeled human, rat or APC labeled mouse Notch1/Fc (e.g. R&D Systems, catalog #3647-TK-050, 1057-TK-050, 5267-TK-050, respectively) was added at a final concentration of 0.01-0.5 μg/ml and plates were incubated for a further 2 h at 4° C. prior to washing and reading on a FACSCalibur instrument.
The activity of the mutated antibodies was assessed in two ways: firstly, the ability of the antibodies to block the binding of soluble Notch1/Fc to full length human DLL4 stably expressed in HEK293 cells as described in Example 3 was determined and, secondly, the binding of the antibodies to the same cell line used in the receptor-ligand competition studies was determined. For the binding studies, HEK293 cells stably overexpressing human DLL4 were resuspended in PBS containing 2% FCS at a concentration of 50,000 cells/well and incubated with titrations of antibody (final concentrations 0.01-10 μg/ml) for 1 h at 4° C. The cells were then washed and incubated with 0.31 μg/ml anti-human IgG-Fc-FITC (BD Pharmingen, cat#555786) for 30 minutes at 4° C. Bound […] was detected using FACS analysis. Results of these studies are summarized in Table 23, which show the effects of specific mutations to sequences of 9G8 and 2H10 on the ability of the antibodies to compete with Notch1 for binding to human DLL4 or to bind to human DLL4 relative to unmutated antibodies.

T1 sequence (Q9NR61 27-685): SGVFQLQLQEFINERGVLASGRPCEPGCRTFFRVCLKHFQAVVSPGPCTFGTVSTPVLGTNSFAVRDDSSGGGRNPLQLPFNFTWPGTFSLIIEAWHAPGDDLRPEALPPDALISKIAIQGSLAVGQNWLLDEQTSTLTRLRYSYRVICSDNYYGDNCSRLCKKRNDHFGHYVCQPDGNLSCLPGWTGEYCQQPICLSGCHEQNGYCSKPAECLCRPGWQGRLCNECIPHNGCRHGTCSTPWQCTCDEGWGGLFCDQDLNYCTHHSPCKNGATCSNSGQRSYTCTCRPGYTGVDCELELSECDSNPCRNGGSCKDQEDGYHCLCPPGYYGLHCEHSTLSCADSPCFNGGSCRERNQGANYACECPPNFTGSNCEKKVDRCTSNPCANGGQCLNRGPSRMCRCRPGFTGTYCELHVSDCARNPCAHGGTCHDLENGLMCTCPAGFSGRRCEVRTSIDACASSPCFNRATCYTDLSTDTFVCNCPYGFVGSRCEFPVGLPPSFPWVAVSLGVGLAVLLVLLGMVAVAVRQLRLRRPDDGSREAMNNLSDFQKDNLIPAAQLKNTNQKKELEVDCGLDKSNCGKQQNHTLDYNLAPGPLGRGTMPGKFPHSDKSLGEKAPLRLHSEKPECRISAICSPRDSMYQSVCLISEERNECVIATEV

| Binder | IC50 [µg/mL] |
| --- | --- |
| 2H10 IgG2 VH M93V/VL C33S (antibody, V domains shown, IgG2) VH: QVQLVESGGGVVQPGRSLRLSCAASGFTFSRHGMHWVRQAPGKGLEWVAVVWFDGSNIYYADSVKGRFTISRDNSKNTLYLQMNSLRAEDTAVYYCARDSRIAAADYWGQGTLVTVSS VL: SYELTQPPSVSVSPGQTVSITCSGDKLGDKYVSWYQQKPGQSPVLVIYQESKRPSGIPERFSGSSSGNTATLTISGTQAMDEADYYCQTWDSSLVVFGGGTKLTVL | 0.138 |
| 2H10 IgG2 VH wt/VL C33D (antibody, V domains shown, IgG2) VH: QVQLVESGGGVVQPGRSLRLSCAASGFTFSRHGMHWVRQAPGKGLEWVAVVWFDGSNIYYADSVKGRFTISRDNSKNTLYLQMNSLRAEDTAMYYCARDSRIAAADYWGQGTLVTVSS VL: SYELTQPPSVSVSPGQTVSITCSGDKLGDKYVDWYQQKPGQSPVLVIYQESKRPSGIPERFSGSSSGNTATLTISGTQAMDEADYYCQTWDSSLVVFGGGTKLTVL | 0.178 |
| 2H10 IgG2 VH M93V/VL wt (antibody, V domains shown, IgG2) VH: QVQLVESGGGVVQPGRSLRLSCAASGFTFSRHGMHWVRQAPGKGLEWVAVVWFDGSNIYYADSVKGRFTISRDNSKNTLYLQMNSLRAEDTAVYYCARDSRIAAADYWGQGTLVTVSS VL: SYELTQPPSVSVSPGQTVSITCSGDKLGDKYVCWYQQKPGQSPVLVIYQESKRPSGIPERFSGSSSGNTATLTISGTQAMDEADYYCQTWDSSLVVFGGGTKLTVL | 0.264 |
| 2H10 IgG2 VH wt/VL C33A (antibody, V domains shown, IgG2) VH: QVQLVESGGGVVQPGRSLRLSCAASGFTFSRHGMHWVRQAPGKGLEWVAVVWFDGSNIYYADSVKGRFTISRDNSKNTLYLQMNSLRAEDTAMYYCARDSRIAAADYWGQGTLVTVSS VL: SYELTQPPSVSVSPGQTVSITCSGDKLGDKYVAWYQQKPGQSPVLVIYQESKRPSGIPERFSGSSSGNTATLTISGTQAMDEADYYCQTWDSSLVVFGGGTKLTVL | 0.174 |
| 2H10 IgG2 VH wt/VL C33R (antibody, V domains shown, IgG2) VH: QVQLVESGGGVVQPGRSLRLSCAASGFTFSRHGMHWVRQAPGKGLEWVAVVWFDGSNIYYADSVKGRFTISRDNSKNTLYLQMNSLRAEDTAMYYCARDSRIAAADYWGQGTLVTVSS VL: SYELTQPPSVSVSPGQTVSITCSGDKLGDKYVRWYQQKPGQSPVLVIYQESKRPSGIPERFSGSSSGNTATLTISGTQAMDEADYYCQTWDSSLVVFGGGTKLTVL | 2.97 |
| 2H10 IgG2 VH wt/VL C33G (antibody, V domains shown, IgG2) VH: QVQLVESGGGVVQPGRSLRLSCAASGFTFSRHGMHWVRQAPGKGLEWVAVVWFDGSNIYYADSVKGRFTISRDNSKNTLYLQMNSLRAEDTAMYYCARDSRIAAADYWGQGTLVTVSS VL: SYELTQPPSVSVSPGQTVSITCSGDKLGDKYVGWYQQKPGQSPVLVIYQESKRPSGIPERFSGSSSGNTATLTISGTQAMDEADYYCQTWDSSLVVFGGGTKLTVL | 0.314 |
| 9G8 IgG2 VH wt/VL C33A (antibody, V domains shown, IgG2) VH: QLQLQESGPGLVKPSETLSLSCTVSGGSISSSSSYWGLIRQPPGKGLEWIGSIYYSGSTYYSPSLKSRVSISVDTSKNQFSLKLSSVTAADTAVYFCARQGYGGHPDVFDIWGQGTMVTVSS VL: SSELTQSPSVSVSPGQTARITCSGDKLGDVYVAWYQQKTGQSPVLVIYEDTKRPSGIPERFSGSNSGNTATLTISGTQVMDEADYYCQAWDSTTAVIFGGGTKLTVL | 0.302 |

Second part, the binder after the results:

| IC50 [µg/mL] | Binder |
| --- | --- |
| 0.32 | 9G8 IgG2 VH wt/VL C33Y (antibody, V domains shown, IgG2) VH: QLQLQESGPGLVKPSETLSLSCTVSGGSISSSSSYWGLIRQPPGKGLEWIGSIYYSGSTYYSPSLKSRVSISVDTSKNQFSLKLSSVTAADTAVYFCARQGYGGHPDVFDIWGQGTMVTVSS VL: SSELTQSPSVSVSPGQTARITCSGDKLGDVYVYWYQQKTGQSPVLVIYEDTKRPSGIPERFSGSNSGNTATLTISGTQVMDEADYYCQAWDSTTAVIFGGGTKLTVL |
| 0.201 | 9G8 IgG2 VH wt/VL C33R (antibody, V domains shown, IgG2) VH: QLQLQESGPGLVKPSETLSLSCTVSGGSISSSSSYWGLIRQPPGKGLEWIGSIYYSGSTYYSPSLKSRVSISVDTSKNQFSLKLSSVTAADTAVYFCARQGYGGHPDVFDIWGQGTMVTVSS VL: SSELTQSPSVSVSPGQTARITCSGDKLGDVYVRWYQQKTGQSPVLVIYEDTKRPSGIPERFSGSNSGNTATLTISGTQVMDEADYYCQAWDSTTAVIFGGGTKLTVL |
| 0.358 | 9G8 IgG2 VH wt/VL C33G (antibody, V domains shown, IgG2) VH: QLQLQESGPGLVKPSETLSLSCTVSGGSISSSSSYWGLIRQPPGKGLEWIGSIYYSGSTYYSPSLKSRVSISVDTSKNQFSLKLSSVTAADTAVYFCARQGYGGHPDVFDIWGQGTMVTVSS VL: SSELTQSPSVSVSPGQTARITCSGDKLGDVYVGWYQQKTGQSPVLVIYEDTKRPSGIPERFSGSNSGNTATLTISGTQVMDEADYYCQAWDSTTAVIFGGGTKLTVL |
| 0.345 | 9G8 IgG2 VH wt/VL C33D (antibody, V domains shown, IgG2) VH: QLQLQESGPGLVKPSETLSLSCTVSGGSISSSSSYWGLIRQPPGKGLEWIGSIYYSGSTYYSPSLKSRVSISVDTSKNQFSLKLSSVTAADTAVYFCARQGYGGHPDVFDIWGQGTMVTVSS VL: SSELTQSPSVSVSPGQTARITCSGDKLGDVYVDWYQQKTGQSPVLVIYEDTKRPSGIPERFSGSNSGNTATLTISGTQVMDEADYYCQAWDSTTAVIFGGGTKLTVL |
